According to patent US20070056058A1 (TARGETED GROWTH, published 2007):

Legend:
[1] = target: AtcyclinD2;1/AtCDKA active kinase complex (Arabidopsis) (UniProt P42752); experiment: cell-based or functional assay
[2] = target: T1, AtcyclinD2;1/AtCDKA active kinase complex (Arabidopsis, UniProt P42752 1-361; P24100 1-294); experiment: cell-based or functional assay
[3] = target: T2, Arabidopsis cyclin D2;1 (AtcyclinD2;1), FLAG tagged (Arabidopsis, UniProt P42752 1-361); experiment: in vitro binding, graded (column Cyclin binding)
T2 construct: Made in Sf9 insect cells from the pAcHLT transfer vector; used as insect cell protein extract
T2 sequence: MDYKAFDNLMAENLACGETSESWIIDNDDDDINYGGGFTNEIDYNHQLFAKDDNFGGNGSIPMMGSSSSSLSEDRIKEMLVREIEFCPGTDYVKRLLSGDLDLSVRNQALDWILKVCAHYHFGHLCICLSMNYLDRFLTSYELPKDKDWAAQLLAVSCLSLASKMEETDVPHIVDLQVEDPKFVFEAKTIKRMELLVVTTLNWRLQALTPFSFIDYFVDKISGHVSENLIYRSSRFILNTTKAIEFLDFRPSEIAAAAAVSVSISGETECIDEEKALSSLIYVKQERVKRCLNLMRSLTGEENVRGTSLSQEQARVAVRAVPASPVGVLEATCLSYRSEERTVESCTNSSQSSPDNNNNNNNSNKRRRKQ

[4] = target: T1, AtcyclinD2;1/AtCDKA active kinase …; experiment: in vitro binding experiments

Sequence of AtcyclinD2;1/AtCDKA active kinase complex (Arabidopsis) (P24100 other isoform, or with tags, fused parts or gaps limits assumed): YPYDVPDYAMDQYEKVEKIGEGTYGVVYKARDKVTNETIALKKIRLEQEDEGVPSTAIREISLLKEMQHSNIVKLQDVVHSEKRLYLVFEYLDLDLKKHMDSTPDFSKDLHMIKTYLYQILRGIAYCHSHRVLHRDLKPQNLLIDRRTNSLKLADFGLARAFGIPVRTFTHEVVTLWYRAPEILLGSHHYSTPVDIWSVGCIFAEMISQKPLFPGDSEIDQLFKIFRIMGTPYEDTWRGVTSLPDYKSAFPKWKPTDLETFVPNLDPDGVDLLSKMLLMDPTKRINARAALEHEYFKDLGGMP
T1 sequence (P24100 other isoform, or with tags, fused parts or gaps limits assumed): as above

BnKrp1 E164A; W165A, construct #555
kinase activity restored by 5 µg mutant in the presence of wild-type KRP1 [1]: 14% | kinase activity restored by 10 µg mutant in the presence of wild-type KRP1 [1]: 15%

BnKrp1 #462 (E129A, E130A, I131A, D132A), cyclin binding region mutant
IC50 (inhibitory concentration that reduces the kinase activity by 50%) [1]: 1.25 µg

BnKrp1 Y149A; F151A; F153A, construct #598
kinase activity restored by 5 µg mutant in the presence of 0.6 µg wild-type KRP1 [1]: < 55% | kinase activity restored by 10 µg mutant in the presence of wild-type KRP1 [1]: < 80%

ZmKRP4 (maize KRP, Genbank accession # AY986792)
IC50 of kinase inhibition [1]: 0.035 µg

B1: BnKRP1 wild type (Brassica napus Krp1), construct BnKrp #461 (other, not shown: small tags and cut ends)
chain: MVRKCRKTKGTVGASSTYMQLRSRRIVYRSEKASSSSSSCCASNNNGVIDLEEERDGETETSSCRRSSKRKLFENLREKESMENSQQIVAGFDSAVKESSDCCCSRRTSLSTTEEKGKSATEQPPTAVEIEDFFVEAEKQLHDNFKKKYNFDFEKEKPLEGRYEWVKL
IC50 (inhibitory concentration that reduces the kinase activity by 50%) [2]: 0.035 µg

B2: BnKrp1 F151A, construct #572 (other)
chain: MVRKCRKTKGTVGASSTYMQLRSRRIVYRSEKASSSSSSCCASNNNGVIDLEEERDGETETSSCRRSSKRKLFENLREKESMENSQQIVAGFDSAVKESSDCCCSRRTSLSTTEEKGKSATEQPPTAVEIEDFFVEAEKQLHDNFKKKYNADFEKEKPLEGRYEWVKL
notes: also called BnKrp1 #572; not shown: N-terminal 6xHis and poly-Myc tags of pET16b-5MYC
binding result [3]: binds | binding result [4]: binds

B3: BnKrp1 Y149A, construct #587 (other)
chain: MVRKCRKTKGTVGASSTYMQLRSRRIVYRSEKASSSSSSCCASNNNGVIDLEEERDGETETSSCRRSSKRKLFENLREKESMENSQQIVAGFDSAVKESSDCCCSRRTSLSTTEEKGKSATEQPPTAVEIEDFFVEAEKQLHDNFKKKANFDFEKEKPLEGRYEWVKL
notes: also called BnKrp1 #587; not shown: N-terminal 6xHis and poly-Myc tags of pET16b-5MYC
binding result [4]: binds
